Assay results reported in patent US8039438B2, “Synthetic peptides that cause F-actin bundling and block actin depolymerization” (The Regents of the University of California, priority 2003, dated 2011).
Entries after “also recorded” stand apart in the source; their conditions may differ.

What was measured:
[1] = biological target: T1, rabbit muscle actin (Oryctolagus cuniculus, UniProt P68135); assay: In vitro bundling of actin by peptides (co-polymerization, differential centrifugation, SDS gel); format: biochemical; conditions: for bundled actin upon inducing polymerization: polymerization induced (PI +); for In vitro actin bundling activity: Tables 2 and 3, peptide co-polymerized with actin in vitro; for activity designation of the peptide in the sequence list (active / less active / inactive): summary sequence table
T1 construct: Purified rabbit muscle actin (Cytoskeleton Inc., Denver, Mo.); purchased Cytoskeleton Inc; host or cells: rabbit muscle
Protocol: The peptides in Table 2 were added to polymerised actin in vitro at different molar ratios. Centrifugation was used to separate fractions containing F-actin, G-actin and bundled actin, which were then run out on […]. Purified rabbit muscle actin (Cytoskeleton Inc., Denver, Mo.) was depolymerized in Low Salt Buffer [LSB; 5 mM Tris-HCl, pH 8.0, 0.2 mM CaCl2, 0.2 mM ATP, 0.5 mM DTT, mM sucrose) for 1 h on ice and denucleated by centrifugation for 1 h at 100,000×g, 4° C. 13 μM monomeric actin was polymerized in vitro by addition of 1/50 vol. […] The samples were centrifuged for 15 min at 10,000×g at room temperature to pellet “bundled filaments”. The resulting supernatant was centrifuged for 1 h at 100,000×g at room temperature to separate F-actin filaments […]. The fractions were boiled in SDS-sample buffer and analyzed on a 10% SDS-Polyacrylamide gel stained with Coomassie.

[2] = system: dextran-labeled electroporated cells; assay: Change in number of dextran-labeled cells after electroporation with peptide; format: cell-based; conditions: dextran-labeled cells counted before and after 18 hrs incubation
Protocol: Electroporated cells were treated with fluorescent dextran plus peptide so those cells receiving the peptide could be identified. Typically a very small number of cells successfully incorporate substance during electroporation, making it difficult to identify those receiving peptide. Typically one sees 10-20% incorporation. But, there is good evidence showing that if a cell incorporates one component in buffer, it will incorporate all components. Thus, dextran can be used to identify those cells receiving peptide. After electroporation of cells with fluorescent dextran and the active peptide SEQ ID NO: 12, the dextran-labeled cells were initially counted and then incubated for 18 hrs. After incubation overnight, the dextran-labeled cells were once again counted. The following Tables 4 and 5 show the average change in dextran-labeled cells after the cells are electroporated and the peptide has invaded the cell body. The cell numbers of the SS12 treated peptide seemed to fluctuate after incubation with various concentrations of the SS12 peptide.

[3] = system: MDA 231 cells; assay: Actin reorganization in MDA 231 cells electroporated with peptide, rhodamine-phalloidin stained; format: cell-based, human; conditions: MDA 231 cells electroporated with peptide
Protocol: Referring now to FIG. 2, it can be shown that treatment with an active peptide results in actin organization in human mammary epithelial tumor cells. MDA 231 cells were electroporated with SS1 (panel A) or SS12 (panel B), fixed, and rhodamine-phalloidin stained. Control epithelial tumor cells were treated with SS1 (SEQ ID NO: 9) resulting in no effect on actin-filled lamellipodia (or ruffling) characteristic of crawling cells.
MDA 231 cells are a particularly aggressive tumor cell line crawling and moving from between tissues.

[4] = system: Embryos from Xenopus laevis; assay: Actin-dependent cleavage in embryos injected with peptide; format: in vivo; conditions: 0.6 mg/mL final concentration in egg; for effect on cell division of embryos: injected, fixed at 8-cell stage
Description: Referring now to photographs of FIG. 3 the peptides have a severely abnormal effect on the embryonic development of cells. […] The embryos resemble the uninjected normal embryos of FIG. 3A
The resulting blastomeres were unable to regain function and were severely abnormal showing abortive cleavage furrows.
However, in the embryos injected with the active peptide (FIG. 3F), filamentous actin is seen in the abortive cleavage furrows.

[5] = biological target: T2, rabbit muscle aldolase with actin (Oryctolagus cuniculus, UniProt P68135); assay: Aldolase co-precipitation with polymerized actin; format: biochemical; conditions: 1 nmol aldolase, 100 nmol peptide
T2 construct: presence (lanes 4-6) of rabbit muscle actin (2 nmol); purchased Sigma (aldolase); host or cells: rabbit muscle
Description: Referring now to FIG. 7, since the SS2 sequence is specific to SuSy protein (with SS2 having some similarity to actin), we tested its effect on the well-known interaction of rabbit muscle aldolase with actin (Winter et al. 1998, Rabbit muscle aldolase was purchased from Sigma). Phalloidin could potentially interfere with the peptides of the invention since both drugs affect actin.
Addition of SS2 peptide had no effect on aldolase precipitation in the absence of actin (FIG. 7A), but increased the amount of aldolase co-precipitating with polymerized actin (FIG. 7B). Although binding of aldolase to actin is not sucrose dependent as shown for SuSy, the presence of Sucrose in the polymerization assay caused an additional increase in the amount of aldolase bound to polymerized actin as shown by lane 6 in FIG. 7B. Rabbit muscle aldolase (1 nmol) was incubated in the absence (lanes 1-3) or presence (lanes 4-6) of rabbit muscle actin (2 nmol).

[6] = system: actin comet tails in Xenopus egg extracts; assay: Actin comet-tail formation in cytoplasmic extracts; format: biochemical, Xenopus laevis; conditions: for effect on actin comet tails: FIGS. 4C, 4D, 4F, concentration not given
Protocol: In FIGS. 4A and 4B, in vitro polymerized actin forms comet tail from rhodamine-labeled actin added to Xenopus laevis egg cytoplasmic extract. This was set up according to the protocol in Taunton et al., J Cell Biol. 2000 Feb. 7; 148(3):519-30.
Crude Xenopus egg extract was prepared as described except that cytochalasin D was omitted (Murray and Kirschner, Nature. 1989 May 25; 339(6222):275-80). Cytosol and a heavy membrane fraction were prepared by centrifugation of the crude extract (2 h, 300.000 g max; BECKMAN SW-50 rotor). The viscous glycogen pellet beneath the membrane layer was discarded. Cytosol was further clarified by spinning for 15 min at 541,000 g max (BECKMAN TLA 100.3 rotor). Crude membranes (diluted with one volume of 2 M sucrose) and cytosol were snap frozen in separate aliquots for storage at −80° C. unless otherwise indicated. Clarified cytosol contained a small population of vesicles, but motility assays were far more robust (more comet tails over a longer time period) when cytosol was supplemented with the heavy membrane fraction.
For the standard assay, crude membranes in 1 M sucrose (20-μl aliquot, derived from ˜80 μl crude extract) were washed and resuspended in 14 μl buffer A (50 mM NaCl, 5 mM MgCl2, and 50 mM tris [pH 7.5]). To the membrane suspension were added 35 μl cytosol (derived from ˜80 μl crude extract), 0.3 μl rhodamine-labeled actin (prepared according to Kellogg et al., Development. 1988 August; 103(4):675-86), 3 μl PMA (20 μM stock in 10% DMSO), and 20 μl buffer A at 4° C. 20-μl samples were then warmed to room temperature. After 30-40 min, 2-μl aliquots were viewed with a Nikon E800 microscope to yield the photomicrographs of FIG. 4. Images were acquired with a Princeton Instruments cooled CCD camera (standard rhodamine filter set, Princeton Instruments, Trenton, N.J.) and analyzed with WINVIEW (Visitron System, Puchheim, Germany) or METAMORPH software (Princeton Instruments, Trenton, N.J.). Pixels having an intensity over a threshold value (set to a value greater than the background fluorescence in regions devoid of comet tails) were summed over 10 random fields to quantitate relative actin assembly.
Cytosol was supplemented with a crude membrane fraction, rhodamine-actin, 1 μM PMA and peptide SS2 or SS12 (1 μM). After incubating at room temperature for 20 min, samples were viewed by fluorescence. Actin comet tails formed in Xenopus cytoplasmic extracts where no SS2 or SS12 peptides were added as shown by the photographs A, B and E of FIG. 4.

[7] = 1:1 molar ratio peptide:actin, FIGS. 6C, 6D

**Q.** “GIVRKAISRFEVAPYL (SS15 less active synthetic peptide)” was tested. Which “bundled actin upon inducing polymerization” value [1, 7] did it give?
**A.** did not cause bundled actin

**Q.** And the “In vitro actin bundling activity” value [1]?
**A.** less active

**Q.** And the “form of polymerised actin” value ([1]; molar ratio peptide:actin 10:1 and 100:1, added to unpolymerized actin, FIG. 6E)?
**A.** predominantly in the bundled form

**Q.** What about the “activity designation of the peptide in the sequence list (active / less active / inactive)” value [1] of the same sequence?
**A.** SS15 less active

**Q.** Which “% change in cell number” value [2] does the source give for “GDRVLSRLHSVRERIGK (synthetic SS1 inactive control peptide) [reference compound]” here?
**A.** +45.0%

**Q.** And the “% change in cell number” value ([2]; peptide concentration 0.2 μM)?
**A.** +1.2%

**Q.** What about the “% change in cell number” value ([2]; peptide concentration 1.0 μM) of the same sequence?
**A.** +17.4%

**Q.** And the “% change in cell number” value ([2]; peptide concentration 10.0 μM)?
**A.** +43.8%

**Q.** And the “effect on actin-filled lamellipodia” value [3]?
**A.** no effect

**Q.** And the “effect on cell division of embryos” value [4]?
**A.** no effect

**Q.** What about the “activity designation of the peptide in the sequence list (active / less active / inactive)” value [1] of the same sequence?
**A.** SS1 inactive

**Q.** “GPTLKRTASTAFMNTTSKK (NR11 inactive synthetic peptide) [reference compound]” was tested. Which “In vitro actin bundling activity” value [1] did it give?
**A.** inactive

**Q.** And the “activity designation of the peptide in the sequence list (active / less active / inactive)” value [1]?
**A.** NR11 inactive

**Q.** Which “amount of aldolase co-precipitating with polymerized actin” value ([5]; 2 nmol actin, FIG. 7B) does the source give for “GIVRKWISRFEVWPYLKK (SS2 active peptide based on Zea mays SuSy 377- 392)” here?
**A.** increased

**Q.** What about the “aldolase precipitation in the absence of actin” value ([5]; FIG. 7A) of the same sequence?
**A.** no effect

**Q.** What about the “lasting effect on cell division” value ([4]; divisions typically an hour apart) of the same sequence?
**A.** at least 3 divisions

**Q.** What about the “effect on cell division of embryos” value [4] of the same sequence?
**A.** block several cell divisions

**Q.** What about the “effect on actin comet tails” value [6] of the same sequence?
**A.** complete disruption of the comet tails

**Q.** What about the “actin comet tail formation” value ([6]; peptide 1 μM, 1 μM PMA, 20 min at room temperature) of the same sequence?
**A.** little or no actin comet tail formation

**Q.** And the “bundling of actin during in vitro polymerization” value (“bundling of actin during” for short) [1]?
**A.** most active

**Q.** What about the “bundling of already polymerized (filamentous) actin” value ([1]; 2 nmol actin polymerized 30 min, then 0, 1, 2, 4 and 20 nmol peptide for 30 min, FIG. 6B) of the same sequence?
**A.** Only the highest concentration of SS2 caused bundling

**Q.** What about the “bundled actin upon inducing polymerization” value [1, 7] of the same sequence?
**A.** the bulk of the actin is bundled

**Q.** And the “bundled actin with peptide alone” value ([1]; 1:1 molar ratio peptide:actin, polymerization not induced, FIGS. 6C, 6D)?
**A.** half of the actin bundled

**Q.** What about the “effect of phalloidin on bundling activity of the peptide” value ([1]; FIG. 7) of the same sequence?
**A.** not affected

**Q.** What about the “In vitro actin bundling activity” value [1] of the same sequence?
**A.** active

**Q.** And the “distribution of actin between bundled and F-actin fraction” value ([1]; added to unpolymerized actin, molar ratio peptide to actin 0.5, FIG. 6A)?
**A.** half-bundled and half-F-actin

**Q.** What about the “activity designation of the peptide in the sequence list (active / less active / inactive)” value [1] of the same sequence?
**A.** SS2 active

**Q.** With “ILRVPFRTENGIVRK (SS11 inactive synthetic peptide)” as the sequence, how does the “bundling of actin during” value [1] read?
**A.** not effective in bundling; also recorded: did not cause actin to bundle

**Q.** And the “bundled actin upon inducing polymerization” value [1, 7]?
**A.** do not produce bundled actin

**Q.** And the “In vitro actin bundling activity” value [1]?
**A.** inactive

**Q.** What about the “activity designation of the peptide in the sequence list (active / less active / inactive)” value [1] of the same sequence?
**A.** SS11 inactive

**Q.** Which “bundled actin upon inducing polymerization” value [1, 7] does the source give for “RRISSVEDKK (SP3 inactive synthetic peptide) [reference compound]” here?
**A.** do not produce bundled actin

**Q.** And the “In vitro actin bundling activity” value [1]?
**A.** inactive

**Q.** And the “activity designation of the peptide in the sequence list (active / less active / inactive)” value [1]?
**A.** SP3 inactive

**Q.** How did the “bundling of actin during” value [1] turn out when “GRMRRIATVEMMKK (SP26 inactive synthetic peptide) [reference compound]” was run?
**A.** not able to bundle actin filaments in vitro

**Q.** What about the “In vitro actin bundling activity” value [1] of the same sequence?
**A.** inactive

**Q.** And the “activity designation of the peptide in the sequence list (active / less active / inactive)” value [1]?
**A.** SP26 inactive

**Q.** “WISRFEVW (Small block of SS12 sequence required for less active synthetic peptide) [SMIN]” was tested. Which “In vitro actin bundling activity” value [1] did it give?
**A.** less active

**Q.** And the “activity designation of the peptide in the sequence list (active / less active / inactive)” value [1]?
**A.** SMIN less active

**Q.** With “ENGIVRKWISRFEVW (synthetic peptide derived from Zea mays SuSy2 protein 357-389) [SEQ ID NO: 3, Zea mays SuSy2 375-389]” as the sequence, how does the “effect on actin comet tails” value [6] read?
**A.** complete disruption of the comet tails
